Test results from a protein production outcome set (Wang et al. 2014).

Assay: label from the status in PepcDB records

Sequence	protein production
MIDLDFRKLTIEECLKLSEEEREKLPQLSLETIKRLDPHVKAFISVRENVSVEKKGKFWGIPVAIKDNILTLGMRTTCASRILENYESVFDATVVKKMKEAGFVVVGKANLDEFAMGSSTERSAFFPTRNPWDLERVPGGSSGGSAAAVSAGMVVAALGSDTGGSVRQPASLCGVVGYKPTYGLVSRYGLVAFASSLDQIGPITKTVRDAAILMEIISGRDENDATTVNRKVDFLSEIEEGVSGMKFAVPEEIYEHDIEEGVSERFEEALKLLERLGAKVERVKIPHIKYSVATYYVIAPAEASSNLARFDGVKYGLRIKEKGLREMYMKTRNVGFGEEVRRRIMIGTFTLSAAYYEAYFNKAMKVRRKISDELNEVLSQYDAILTPTSPVTAFKIGEIKDPLTYYLMDIFTIPANLAGLPAISVPFGFSNNLPVGVQVIGRRFADGKVFRIARAIEKNSPYNENGMFPLPEVKA	not failed
MPLELVVIHSYKSSDMKPYLLSAFAAILSTSAMAYDVKSGGKTSVKKDGANAYSLPATNLPMSKRLDFSVGNSFFRNPWVQAPATTDARDGLGPLFNTNGCQNCHIKDGRGHPPEKDDIHAVSMLVRLSIPAMTPKQKKAYIMDGGIPEPTYGGQLQDFALQDQTPEGKIAITYTDVPVEFKDGSKVTLRKPTLKITDLGYGDMHPDTQFSARVAPPMIGLGLLESIPDETLLKWADENDSDSDGISGKVNKVWDIEKGDFSLGRFGWKAGQPTLMQQNAAAFNGDVGLTSHLFPNENCTAKQSLCEELPNGGKPEVSQNILDFVEFYSQHLAVPIRRNVNDPDVQLGQKIFAASGCESCHKTSVKTTKRADRPALSEQLIHPYTDLLLHDMGEGLADHRPEYLANGREWRTPPLWGIGYTEEVNGHTYFLHDGRARNLMEAVLWHGGEAEQAKQNVLSLNQKERDALIAFLNSL	failed
PPNDNIPTPLEKEEKAKEASDNKEKTKETSNSAQNAQNTQASDKTSDNKSTAPKETIKHFTQQLKQEIQEYKPPMSRISMDLFPKELGKVEVIIQKVGKNLKVSVISHNNSLQTFLDNQQDLKNSLNALGFEGVDLSFSQDS	failed
MGFTELNSVEHYIIHQISGVNLNDAQCKNQVSEPQATYALQWQFKSSEQLGRDVNEVLVESELVKALIRLNPEIEANPHLADEVIHKLRAILISVNQVGLVKANEEFFAWMTGEKTMPFGENNRHVPVKLIDLEDLTRNGYVVTNQFRIHHRETKIPDVVLMINGIPVVVGEAKTPIRPSVSWLDGAHEVHNIYENAVPQLFVPNILSFATEGKELFYGAIRCPLEFWAPWRTEEDDNSKGIGQVSKALGLTEIGKELIDLLSPVRLLDIMRNFSLFTTNKKKQRIKVIPRFQQYEGANKIVERVIEGKIKKGLIWHFQGSGKSLLMVFAAQKLRRTAQLKSPTVIVLVDRTDLDTQISGTFNAADVANVESTDSIKELQRMLERDTRKIIISMIHKFRDAKPNMNTRENIIVLVDEAHRTQEGDLGRQMRAALPNAFLFGLTGTPVNKADKNTFWAFGAEEDKGGYMSRYTFHDSIRDEATLPLHFEPRLVDVHVDKEALDKAFKDFKESAALSDEEADALNQKSAKMSAFLKSPERVEKIVEDIAIHFMDKVEPHGFKAMVVTPDREACVQYKEELDKHFPESASKVVISTSANDDFEFKQKWGVDKSQQEKLVDEFNDEKSDLKFLVVTAKLLTGFDAPICQTMYLDKSIKDHTLLQAICRTNRLYPNKTFGCIVDYFGVFDDAAKALEFDEESVQQVISNLSELRSKLPQAMQDTLAHFIGVDRSLEGFEGLEAAQNAIGDNDKKDAFALDFKYLAKLWESLSPDSVLDEYNEDYKWLAQVYESVKPASDNIGKLLWLALGAQTTQLIHDNVHVGDVHNLEEFVLDADVIENIFNNPDPRKIKQLEKELAKRFKDRGDLPVFKSLSERLEELRDKAEKGLIASIDFVKELCKIAKETVQAEKDLDDELQEKTPQAALTDLFLELKDDQTPAVVERIVTDIDAIVRIVRFPGWQTTTGGEREVQKSLRKALLKYKLHTDQTLFDRAYGYIKEYY	failed
MSDSWTERWNDRYSNEIFAYGEKPNNYLKAQLENLQPGTILFAAEGEGRNAVFAACLGWDVQAFDISSEGKKKAFQLAEKNQVTIAYQVGQLETLGYTAGQFDALALIYAHFPATVKSAYHRILSSYVRSGGYIIFEAFSKKHLDYLAKNEQVGGPKEFDMLFSIEEIKADFPDYEILELEEKEIELNEGQFHNGTGSVIRFTGRKKLEHHHHHH	failed
MDNPKGIDGFTNLKEKDIATNENKLLRTITADKMIPAFLITPISSQIAGKVIAQVESDIFAHMGKAVLIPKGSKVIGYYSNNNKMGEYRLDIVWSRIITPHGINIMLTNAKGADIKGYNGLVGELIERNFQRYGVPLLLSTLTNGLLIGITSALNNRGNKEGATNFFGDYLLMQLMRQSGMGINQVVNQILRDKSKIAPIVVIREGSRVFISPNTDIFFPIPRENEVIAEFLK	failed
AARNLSKEEYAANHPAGRIGKSLIFKVKDVMKKQEELPVCKEGDLIMDQLVELTSKGCGCLLVVDEHSRLIGTFTDGDLRRTLKASGEAIFKLSVGEMCNRKPRTIGPETMAVEAMKKMESPPSPVQFLPVVNEDNTLIGIVTLHGLVSA	failed
MSPLALLFLTLFNSVLGLSILFPILGPLGRALGLTEVQVGLFSTGYALMQFLLSPYWGRRSERGRKPVLLVGILGFAASFLLFGVFALLGERGLVPPGLLFFLLLLARLLGGAFSSATLPTAQAYVADVTGRENRTAGMALLGAAFGLAVILGPALGAGLAALFGLLAPVFFSAGIALLNALFVYLVLPESRPRGQEAGARLSPFDPRVFPLLLLGLALNLSSVALEQTIAFYFQDRLLLGGVETAQKVGLALVLYGVVAVFVQGVLVRKTGWPPRVLLSLGLPLGILGFVLLVYAKTFWALALGLALQGAGQGLALPGVTAALSLAVGEGEQGLVAGLNSSAQALGRMLGPIVGTGLYRLAPEGPYVLGASLLLLALLFLPALFRRARL	failed
MIDIKVDPRLKSQRFRQEREADWRRLERLIGKVEKGSIADLSDEDLLAAPVLYRSALSALSVARATSLDRALIAYLETLCARAYFFVYGSRETLWGQLKGFFAGDWPAAVRGLWRETLVSAALMALGVMIAAWLVGHDPDWFYAFVPRELAGGRDPAATTEALAATLGGKDASGLTVFATFLFTHNAQVALLAFALGFALCVPTAGLVLYNGAMLGAFLALFASRGLGIELGGWLLIHGVTELFAVILAGAAGLRIGWAAAFPGERRRLDALAEAGRHAATVMGGVVVMLFLAGLLEGFGRQLITDTAARYGVAAATALMWGLYFYGPRRHG	failed
MGKENLYVVLPSYNEEANIGKLINEWNVQFKDLEARGIKLEIIIVNDGSTDNTLAVAEAFSKHNDNVVVIDHGVNKGLGEGLNTGINYVLSQKQKGYMCLMDGDMTHEPKYIFSMLDKLQEEKLDCVIASRYRRGAKVEGLSLFRKFLSFGARVLYTIRLGIPNVRDYTCGYRLYKTSVLEKLHKVYGKRIVKETGFACMMELIVKVSKENFKIGEVPFVLKYQLKGGESKMKVGKTIKRSLLLLRVYKLEHHHHHH	not failed
MSLTASYETIKARLDGTVLSATFNAPPMNLIGPEVVRDLVALLEELAHPTAPRVVIFDSADADFFFPHVDMTKVPEYTAEAAKAGGPGDASLGMLFRKLSQLPAVTIAKLRGRARGAGSEFLLACDMRFASRENAILGQPEVGIGAPPGAGAIQHLTRLLGRGRALEAVLTSSDFDADLAERYGWVNRAVPDAELDEFVAGIAARMSGFPRDALIAAKSAINAISLPAPAEVRADAALFQQLVRGEKVQQRTAELFKQGFQTRGATELDLGDALGHLKAVDEGHHHHHH	not failed
MRAHGRRVSKRQPDSPGRLRGAFGSRLHLSPLTRLPARPIWRPRAGCAVPLAGPGCDPAGFMLKSPSFPFSAPAMLRHLPMTYCAIDFGTSNSAVALPDGDGMRLAPVEGDHLTLPTAIFFNNDEQTVEYGRAALASYIDGFDGRLMRSMKSILGSPLAETTTDLGDGSAMAYTEIIARFLTHLKRKAEARAGAPIGRAVLGRPVFFVDEDPRADRLAQDQLEAAARSVGFTDVHFQYEPIAAAFDYESRQQAERLVLVADIGGGTSDFSLVRVGPERMARLERKDDVLAHHGVHVAGTDYDRRVELAAILPAFGYRALDPEGRELPNRIYFDLATWHLINTVYTPKRLGELKLMKHLYQDGRQHDRLMSVVEQRLGHALMARAEEAKIGVAAGGETMIDLNDVEEDLQIAFDAERLVEASVDDTARIVDAARETVRLAGVAPRDLGALYFTGGSTGLAFLSGALAGAFPDAQPVFGDRLASVATGLGIHAQRLFG	failed
MRIAVVGATGRIGSKLTRTLLGAGHQVKALSRGGAALEALVEAGAEPFLGSFDTGAGALDTFFQDVEAAFLMVKTDWNNIEGHYPAVAQRFVDALRGSPVKLAVSLSAMGSDVDGKTGHFELFHHLDQRLNELNDIDMVHLRAAWFMENTLAWTASVAKYGRLAWFYEPDLKMPWVATDDIAGLAAKELTNPTGDHRVIRETGSEDLTMNELAAMIGREIGKPVEYRFIDRGRKEIENEYLARFGTPEHWLDDSRSADALNHGVVRFQGGDDVRPVLPTTMEAFLKTIWTPRYLEALASEGKPETFEMWCAR	failed
MNRPHSATGDRPLALVDEHAHAWSPKTARARFRKGLTGPTAGVAAGHTQANLISVPADWAYDMLLFCTRNPQPCPVLDVTDAGSWTTVLADGADLRTDLPRYRVWRDGELVDEPSDVREHWRDDLVTFLIGCSFTFEWALAAAGVPIRHVEQGRNVPMYVTSRACRPAGRLRGPMVVSMRPVPPAHLSAAIHESSLLPAVHGSPVHCGDPSALGIDDLDRPDFGEAVYREPDDIPVFWACGVTPQAAVMASRPPFALTHAPGQMFLTDARDEQYRVALEHHHHHH	failed
EPAHGRQHTPCLFCDRLFASAEETFSHCKLEHQFNIDSMVHKHGLEFYGYIKLINFIRLKNPTVEYMNSIYNPVPWEKDEYLKPVLEDDLLLQFDVEDLYEPVSTPFS	not failed
MENNGEMNAQPELSGIIDITKTYMYEKLWNICAGPLCVLPKPGEKVYYFPQGHIELIENSTRDELDHIRPIFDLPSKLRCRVVAIDRKVDKNTDEVYAQISLMPDTTDMSQPISTQNLVAKDLYGQEWSFKHVFRGTPQRHMFTSGGGWSVFATTKRLIVGDIFVLLRGENGELRFGIRRAKHQQGHIPSSVISANCMQHGVIASVVNAFKTKCMFNVVYKPSYDKFVDAMNNNYIVGSRFRMQFEGKDFSEKRYDGTIIGVNDMSPHWKDSEWRSLKVQWDELSPFLRPNQVSPWDIEHLIPSSDISQSSATLSNLWTCQEIGQRSMNSPISVPEFSYPNAIEDSKFLSGLLLNHSLLAIPNENYNSDQMIQPRKEDITTEATTSCLLFGVDLTKVHMQGVAISRAVDLTAMHGYNQLIQKLEELFDLKDELRTRNQWEIVFTNNEGAEMLVGDDPWPEFCNMAKRIFICSKEEIKKMKLKNKFFQPESKALTSSDVPPNVTDN	failed
IPGPGFTAGAQGSCSLRCGAQDGLCSCHPTCSGLGTCCEDFLDYCLEILPSSGSMMGGKDFVVQHLKWTDP	not failed
MAETAETINTTISSPPPESESSTTISAMTDPTSQEAASKDTDLTKEAESEKKPGGISLRIWPPTQKTRDAVLNRLIETLSTESILSKRYGTLKSDDATTVAKLIEEEAYGVASNAVSSDDDGIKILELYSKEISKRMLESVKARSNASVGNGSVEDANTDASEVSKDDAGPASEEEKSEA	failed
VNATQRKLLMQLVIGAAWVDGDLDQPERQYLQTLLERQKLDHDPDLLVLLETPIGLPQLEAWLVTFLQGTSTPTRLAALATIANLLMADGVVNRSEHSLLDEIHSLMAQIPASRDEEEYRQAAPGLVQGLSGLVRRALNGAKHLFQ	not failed
MTLLWGLLSGMAVIGGLIGVVAGLVGTTAPRRAPLQQRWQALRAGKDQGEDVRLRRRTLAALAVVVFVAVWLVSGNFVGGALLGVAVVGVPWLISPAQMAQERIGQLEALSEWTQRLAGLLRLGMGLEQAMITSRQGAPDELAPQIVNLSDRLRLGWRPDGALRAFAEELNDVTADKVVAALILSVNDRGPGLAQALEDLAGTVRDEVAKKRAIEADRAKPRTTVRWMTVITVGVVVAGFFVPSYTKPYSTLLGQLVLAFLTVGFIGVLALMRQLGAFRRIPRFLITDPSSTVRLPLAGDGAGRAGRWP	failed
